{"source": "patent US20040091478A1", "binders": {"B1": {"name": "soluble type CD14 purified from human serum (receptor)", "chain": "TTPEPCELDDEDFRCVCNFSEPQPDWSEAFQCVSAVEVEIHAGGLNLEPFLKRVDADADPRQYADTVKALRVRRLTVGAAQVPAQLLVGALRVLAYSRLKELTLEDLKITGTMPPLPLEATGLALSSLRLRNVSWATGRSWLAELQQWLKPGLKVLSIAQAHSPAFSCEQVRAFPALTSLDLSDNPGLGERGLMAALCPHKFPAIQNLALRNTGIETPTGVCAALAAAGVQPHSLDLSHNSLRATVNPSAPRCMWSSALNSLNLSFAGLEQVPKGLPAKLRVLDLSCNRLNRAPQPDELPEVDNLTLDGNPFLVPGTALPHEGSMNSGVVPACARSTLSVGVSGTLVL"}, "B2": {"name": "rabbit soluble type CD14 (in New Zealand white rabbit serum) (receptor, UniProt Q28680 18-342, looked up)", "chain": "STDTPEPCELDDDDIRCVCNFSDPQPDWSSALQCMPAVQVEMWGGGHSLEQFLRQADLYTDQRRYADVVKALRVRRLTVGAVQVPAPLLLGVLRVLGYSRLKELALEDIEVTGTAPPPPPLEATGPALSTLSLRNVSWPKGGAWLSELQQWLKPGLQVLNIAQAHTLAFSCEQVRTFSALTTLDLSENPGLGERGLVAALCPHKFPALQDLALRNAGMKTLQGVCAALAEAGVQPHHLDLSHNSLRADTQRCIWPSALNSLNLSFTGLQQVPKGLPAKLNVLDLSCNKLNRAPQPGELPKVVNLSLDGNPFLVPGASKLQEDLTN"}, "B3": {"name": "rhesus monkey soluble type CD14 (in serum) (receptor)", "chain": "TTPEPCELDDEDFRCVCNFSEPHPDWSEAFQCVSAVEVEIRVGGLSLEPFLTRVDPDADPRQYADTIKALRVRRLTVGAAQVPAQLLVGALRVLAYSRLQELTLEDLEITGTMPPLPLEATGLALSSLRLHNVSWATGRSWLAELQQWLKPGLKVLSIAQAHSPAFSCEQVRAFPALTSLDLSDNPGLGERGLIAALCPHKFPALQNLALRNTGMETPTGVCAALAAAGVQPHSLDLSHNSLRATANPSAPRCMWSSALNSLNLSFAGLEQVPKGLPAKLRVLDLSCNRLNRRPRPDELPQVDNLALDGNPFLVPGTALPQEGSMN"}, "B4": {"name": "crab-eating macaque soluble type CD14 (in serum) (receptor)", "chain": "TTPEPCELDDEDFRCVCNFSEPHPDWSEAFQCVSAVEVEIRVGGLSLEPFLTRVDPDADPRQYADTIKALRVRRLTVGAAQVPAQLLVGALRVLAYSRLQELTLEDLEITGTMPPLPLEATGLALSSLRLHNVSWATGRSWLAELQQWLKPGLKVLSIAQAHSPAFSCEQVRAFPALTSLDLSDNPGLGERGLIAALCPHKFPALQNLALRNTGMETPTGVCAALAAAGVQPHSLDLSHNSLRATANPSAPRCMWSSALNSLNLSFAGLEQVPKGLPAKLRVLDLSCNRLNRRPRPDELPQVDNLALDGNPFLVPGTALPQEGSMN"}}, "biological_target": "F1024-1-3 antibody (monoclonal antibody produced by hybridoma F1024-1-3, Accession No. FERM BP-7511)", "test": "competition ELISA: 4-fold diluted serum mixed with 1 µg/mL peroxidase-labeled F1024-1-3, added to immobilised human CD14(1-356)", "data": [{"binder": "B1", "values": [{"measurement": "inhibition ratio of binding of F1024-1-3 antibody to human CD14", "result": 83, "unit": "%"}]}, {"binder": "B2", "values": [{"measurement": "inhibition ratio of binding of F1024-1-3 antibody to human CD14", "result": 52, "unit": "%"}]}, {"binder": "B3", "values": [{"measurement": "inhibition ratio of binding of F1024-1-3 antibody to human CD14", "result": 44, "unit": "%"}]}, {"binder": "B4", "values": [{"measurement": "inhibition ratio of binding of F1024-1-3 antibody to human CD14", "result": 57, "unit": "%"}]}]}
